Measured values published in patent US20220033505A1.

Legend:
[1] = biological target: HLA-A exogenously expressed on cells (K562-HLA-A) (human) (UniProt P04439); experiment: flow cytometry; IgG1 mAb on cells expressing HLA-A
[2] = biological target: HLA-B exogenously expressed on cells (K562-HLA-B) (human) (UniProt P01889); experiment: flow cytometry; IgG1 mAb on cells expressing HLA-B
[3] = biological target: HLA-C exogenously expressed on cells (K562-HLA-C) (human) (UniProt P10321); experiment: flow cytometry; IgG1 mAb on cells expressing HLA-C
HLA-C exogenously expressed on cells (K562-HLA-C) (human), sequence (P10321 25-366): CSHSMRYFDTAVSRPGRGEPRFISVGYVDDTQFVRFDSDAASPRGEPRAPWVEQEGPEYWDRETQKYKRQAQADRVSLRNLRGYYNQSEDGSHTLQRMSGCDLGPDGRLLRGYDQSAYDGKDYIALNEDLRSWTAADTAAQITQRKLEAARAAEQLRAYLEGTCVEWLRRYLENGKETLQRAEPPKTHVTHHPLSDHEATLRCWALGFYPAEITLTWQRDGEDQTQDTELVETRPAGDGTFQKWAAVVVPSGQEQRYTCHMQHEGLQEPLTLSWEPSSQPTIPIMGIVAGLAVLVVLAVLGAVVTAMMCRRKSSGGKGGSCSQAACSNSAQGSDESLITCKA

HLA-B exogenously expressed on cells (K562-HLA-B) (human), sequence (P01889 25-362): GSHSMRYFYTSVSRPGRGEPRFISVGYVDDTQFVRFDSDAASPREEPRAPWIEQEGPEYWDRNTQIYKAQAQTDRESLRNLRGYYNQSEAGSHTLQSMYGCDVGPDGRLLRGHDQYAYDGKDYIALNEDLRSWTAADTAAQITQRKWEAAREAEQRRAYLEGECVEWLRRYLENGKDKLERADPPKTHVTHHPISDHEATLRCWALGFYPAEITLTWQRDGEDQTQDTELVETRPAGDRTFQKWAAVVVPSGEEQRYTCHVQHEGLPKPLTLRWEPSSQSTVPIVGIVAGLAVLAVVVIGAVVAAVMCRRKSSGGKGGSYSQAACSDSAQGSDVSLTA

B1: MHGB689 (antibody, human IgG1, kappa, V domains shown)
VH: QVQLQQSGPGLVKPSQTLSLTCVISGDSVSSNRAAWNWIRQSPSRGLEWLGRTYYRSKWYNDYAVSVKSRITINSDTSKNQISLQLNSVTPEDTAVYYCARVRPGIPFDYWGQGTTVTVSS
VL: DIQMTQSPDSLAVSLGERATINCESSQSVLFSSNKKNYLAWYQQKPGQPPKLLIYWASTRESGVPDRFSGSGSGTDFTLTINRLQAEDVAVYYCQQYNSTPWTFGQGTKVEIKR
Geomean fluorescence signal (maximum value for binding) [1]: 2540 | Geomean fluorescence signal (maximum value for binding) [2]: 5790 | Geomean fluorescence signal (maximum value for binding) [3]: 266
